PMC8548535, “Kinetic and structural roles for the surface in guiding SAS-6 self-assembly to direct centriole architecture” (Nature Communications, 2021)

Experiments:
[1] = target: the molecule itself; assay: high-speed atomic force microscopy (PORT-HS-AFM); homodimer with homodimer (and higher oligomers, rings) adsorbed on a mica surface; 20 mM Tris-HCl, 150 mM KCl, pH 7.4, 6-10 °C; ~120 nM in solution (~14 nM pre-incubated on mica for ring opening and closing); effective surface constants, Kd from a fit of a coagulation-fragmentation model
[2] = target: the molecule itself; assay: circular dichroism, concentration series; monomer to dimer; CD signal at 222 nm at varying protein concentrations, 20 °C, 20 mM potassium phosphate pH 8.0, 150 mM NaF, fitted with a two-state association model

B1: Chlamydomonas reinhardtii SAS-6[NL] (CrSAS-6[NL], amino acids 1-503) (domain or fragment, UniProt A9CQL4 1-503, looked up)
chain: MPLLLDDGDPKAQTGFDLSTATTLFWRPVPVHVKQQDREDVLEELTFRILTGVAKQNHNLRILRIHISSDSDLFFLHTLEVSEEDFQSLKNDQGILVDFASFPGKIISLLEKCILAQPGDSPRFQAVLTIRGGESVFKIVEINDFKQLPHITLAFRPGNDSVVKQFLAFRLSEVKGTCHDLSDDLSRTRDDRDSMVAQLAQCRQQLAQLREQYDKHLLEVQAQAKTQQASAHEERIREKSQLKDQFEKERGEMEGRYRDQIAALNTRLGELDTENRKLREVKYELDTKVSELSHKLGSSEGSNRSLEEETARLRSLNQQLSSSKHELEIQLNEAKAKVLALDEKAQSQGDVIEQQRGRLRDMEAALRQTEQRCADLRDTLASAEGRAKEAQAEVLKGNQAIEKLTNDLRLAKEKTKRKAAIILRQEEELQEREQSLANATRDVGVLGQQAESLRKDVASLHSENDSLRSKLEDSKQQLQSNEQMIRWLNQQVTEAQLHASGAT
notes: SAS-6 of Chlamydomonas reinhardtii, amino acids 1-503: globular N-terminal head domain and the coiled-coil (spokes), without the unstructured C-terminal moiety; Forms a homodimer through its coiled coil (monomer-dimer Kd measured here); source: E. coli BL21(DE3), purified (HisTrap Ni2+-Sepharose, PreScission cleavage, reverse HisTrap, SEC Superdex 200)
- stoichiometry N [1]: 7 to 10 homodimers
- Kd [2]: ~20 nM
